In article PMC4105859, “Characterization of the SAM domain of the PKD-related protein ANKS6 and its interaction with ANKS3” (BMC Structural Biology, 2014):
Where a chain is given by its changes, count along the chain named. Names may count otherwise.

T1: ANKS6-SAM wt (human, UniProt Q68DC2 771-840)
T1 chain: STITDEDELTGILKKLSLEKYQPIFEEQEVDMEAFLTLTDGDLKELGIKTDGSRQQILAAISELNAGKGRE

T2: ANKS3-SAM F53E
T2 chain: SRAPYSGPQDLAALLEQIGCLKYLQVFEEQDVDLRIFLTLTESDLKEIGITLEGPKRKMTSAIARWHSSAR

B1: negGFP-ANKS3-SAM fusion protein (domain or fragment, human, UniProt Q6ZW76 421-490, looked up)
chain: RAPYSGPQDLAALLEQIGCLKYLQVFEEQDVDLRIFLTLTESDLKEIGITLFGPKRKMTSAIARWHSSAR
notes: ANKS3 (ankyrin repeat and SAM-domain containing protein 3), human, SAM domain, residues 421-490 of UniProt Q6ZW76; source: ARI814 cells, in lysate (native gel); purified (Ni-NTA, HiTrap Q) for TEM
B2: His6-tagged ANKS3-SAM (domain or fragment, human, UniProt Q6ZW76 421-490, looked up)
chain: B1 chain
notes: ANKS3, human, SAM domain, residues 421-490 of UniProt Q6ZW76; pET28 vector; also called ANKS3-SAM (negGFP removed); ANKS3-SAM precipitate; source: Rosetta(DE3) cells, purified (Ni-NTA); precipitated after purification
B3: His6-tagged ANKS6-SAM (domain or fragment, human, UniProt Q68DC2 771-840, looked up)
chain: TITDEDELTGILKKLSLEKYQPIFEEQEVDMEAFLTLTDGDLKELGIKTDGSRQQILAAISELNAGKGRE
notes: ANKS6, human, SAM domain, residues 771-840 of UniProt Q68DC2; pBAD-HisA vector; source: ARI814 cells, purified (HiTrap IMAC, HiTrap Q)
B4: ANKS3-SAM I36E (domain or fragment)
chain: T2 chain with I36E, E53F

Tests used:
[1] = target: the molecule itself; assay: negative stain transmission electron microscopy; purified protein or its precipitate on carbon/formvar grids, 1% uranyl acetate, 120 kV
His6-tagged ANKS3-SAM = target: B2; assay: resolubilisation of a precipitate; His6-ANKS3-SAM precipitate (3.2 mg/mL dialysed into 20 mM Tris pH 7, 0.25 M NaCl, 1 mM DTT); His6-ANKS6-SAM at 3.3 mg/mL or buffer alone added at 2:1, 1:1, 1:2; 3 h on ice; settings: both partners purified
ANKS6-SAM wt [2] = target: T1, ANKS6-SAM wt; assay: SPR; value printed in panel; legend gives 249 nM
ANKS3-SAM F53E (human) = assay: SPR; ANKS3-SAM F53E immobilised on CM5 (EDC/NHS), ANKS3-SAM I36E flowed over; Biacore T100, 21°C, 20 mM HEPES pH 7.5, 1 mM DTT, 0.04% IGEPAL CA-630, 0.15 M NaCl; equilibrium, 1:1 steady-state model, triplicate; Kd called an approximation since saturation was not reached
ANKS3-SAM F53E = target: T2, ANKS3-SAM F53E; assay: SPR; settings: chain shown with the change, read off a plot
ANKS6-SAM wt [3] = target: T1, ANKS6-SAM wt; assay: SPR; ANKS6-SAM wt immobilised on CM5 (EDC/NHS), ANKS3-SAM I36E flowed over; Biacore T100, 21°C, 20 mM HEPES pH 7.5, 1 mM DTT, 0.04% IGEPAL CA-630, 0.15 M NaCl; equilibrium, 1:1 steady-state model, triplicate

Binder: B1
binding result [1]: binds

Binder: B2
binding result [1]: binds

Binder: B3
binding result (His6-tagged ANKS3-SAM): binds

Binder: B4
Kd (ANKS6-SAM wt [2]): 270 nM
Kd (ANKS3-SAM F53E (human)): 5800 nM
other: Log (Kd) (ANKS3-SAM F53E; Log [NaCl] est. -0.60): 4
other: Log (Kd) (ANKS3-SAM F53E; Log [NaCl] est. -0.70): 3.9
other: Log (Kd) (ANKS3-SAM F53E; Log [NaCl] est. -0.82): 3.8
other: Log (Kd) (ANKS3-SAM F53E; Log [NaCl] est. -1.0): 3.7
Kd (ANKS6-SAM wt [3]): 249 nM
